Experimental data from patent publication US20230087785A1, “Leucine-Rich Repeat Kinase 2 Allosteric Modulators” (VIB VZW, priority 2020, published 2023).

Experiments:
[1] = molecular target: T1, Full-length human Leucine-rich repeat kinase 2 (LRRK2), N-terminal Strep/Flag (SF) tagged (human, UniProt Q5S007 1-2527); experiment: BLI; Nb on LRRK2 trapped on streptavidin sensor via biotinylated Nb40; steady-state fit
T1 construct: Purified from HEK293T cells in presence of GDP or GTPγS; also called FL LRRK2; FL-LRRK2
Protocol: To determine the binding affinity (dissociation constant KD) of the ten Nbs for LRRK2, two methods were used in parallel: microscale thermophoresis (MST) and bio-layer interferometry (BLI). For the MST experiment, we site-specifically labeled the ten Nbs with a m-TAM RA fluorophore at its C-terminus, using sortase-mediated coupling, and then titrated increasing amounts of full-length LRRK2 to these Nbs (FIGS. 13A-13E).
Biolayer interferometry (BLI) measurements were performed using an Octet Red96 (Forte Bio, Inc.) system in a buffer containing 50 mM HEPES pH 8.0, 150 mM NaCl, 10 mM MgCl₂, 5% glycerol, 0.1% BSA, 0.05% Tween, at 25° C. and with shaking speed 1000 rpm. […] The biotinylated Nbs were first loaded on pre-equilibrated SA biosensors at a concentration of 5 μg/mL. This Nb-loaded sensor was then used to trap FL-LRRK2 from a 50 nM LRRK2 solution. […] All experiments were performed in triplicate.

[2] = molecular target: T1, Full-length human Leucine-rich repeat …; experiment: MST; LRRK2 titrated to m-TAMRA-labelled Nb, 500 µM GDP
Protocol: Microscale thermophoresis (MST) experiments were performed for determining equilibrium binding affinities (KD) of Nbs binding to FL-LRRK2. Therefore, Nb were site-specifically labelled at their C-terminus with m-TAMRA, using Sortase-mediated peptide exchange. The Nbs were recloned into a pHEN29 vector which is subsequently used to express and purify the Nbs with a C-terminal LPETGG-His₆-EPEA tag. Exchange of the latter peptide with an m-TAMRA-labeled GGGYK peptide (GenicBio, Shanghai, China) was performed using Sortase, and unlabeled Nb and unincorporated peptide were removed using a Ni-NTA and SEC purification step, respectively. […] After incubation at 4° C. for 30 mins, samples were loaded in capillaries and measurements were performed at 25° C. using 50-70% LED power and 80% laser intensity (laser on-time: 30 s, laser off-time: 5 s). All experiments were performed in triplicate.

[3] = molecular target: T2, LRRK2 RocCOR domain construct (human, UniProt Q5S007 1334-1840); experiment: ELISA, antigen coated on the plate, purified Nb detected via its EPEA tag
T2 construct: A second construct (residues 1293-1840, N-terminal His6-MBP) was used in certain screening experiments; not shown: N-terminal Twin-Strep-tag; C-terminal His10-tag
T2 sequence: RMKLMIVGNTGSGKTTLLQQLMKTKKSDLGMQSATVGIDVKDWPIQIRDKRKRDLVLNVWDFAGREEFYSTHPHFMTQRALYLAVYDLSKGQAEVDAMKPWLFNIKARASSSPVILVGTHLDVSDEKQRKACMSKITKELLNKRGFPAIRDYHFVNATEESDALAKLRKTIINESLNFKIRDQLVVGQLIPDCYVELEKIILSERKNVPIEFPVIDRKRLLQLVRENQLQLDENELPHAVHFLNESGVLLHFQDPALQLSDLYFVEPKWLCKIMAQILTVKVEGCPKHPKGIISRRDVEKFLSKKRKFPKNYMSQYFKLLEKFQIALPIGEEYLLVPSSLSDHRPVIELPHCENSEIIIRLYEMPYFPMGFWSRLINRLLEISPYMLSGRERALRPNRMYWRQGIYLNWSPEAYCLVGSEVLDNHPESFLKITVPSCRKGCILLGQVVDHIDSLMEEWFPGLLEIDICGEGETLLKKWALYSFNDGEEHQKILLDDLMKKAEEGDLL
From the text: (§1) We recombinantly expressed and purified the RocCOR, Roc, COR-B and kinase-WD40 (K-WD40) domain constructs of LRRK2 (FIG. 7). Subsequently, we performed an ELISA in which all these domain constructs were coated in parallel next to each other in the same ELISA plate, and where we subsequently detected binding of the 42 purified Nbs. […] To enrich in Nbs directed against the Roc domain we specifically included a selection step with either Roc-GTPγS or Roc-GDP.

[4] = molecular target: T3, LRRK2 Roc domain construct (human, UniProt Q5S007 1329-1520); experiment: as above
T3 construct: not shown: N-terminal His6-tag of pET-28a
T3 sequence: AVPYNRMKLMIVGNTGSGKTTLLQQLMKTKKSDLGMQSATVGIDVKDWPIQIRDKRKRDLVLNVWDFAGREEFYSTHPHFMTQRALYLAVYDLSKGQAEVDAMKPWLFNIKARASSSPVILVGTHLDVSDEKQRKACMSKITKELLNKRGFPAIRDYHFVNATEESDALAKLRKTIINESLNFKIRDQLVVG
From the text: as §1

[5] = molecular target: T4, LRRK2 COR-B construct (C-terminal part of the COR domain), His6-MBP tagged (human, UniProt Q5S007 1672-1840); experiment: as above
T4 construct: also called (MBP-)COR-B; not shown: N-terminal His6-MBP-tag of pDEST-566
From the text: as §1

endogenous LRRK2 = molecular target: T5, endogenous LRRK2 (Mus musculus, UniProt Q5S006); experiment: Colocalization of GFP-Nbs with endogenous LRRK2 on zymosan-containing phagosomes in RAW264.7 cells; assay type: cell-based; conditions: RAW264.7 cells transfected with GFP-Nbs, zymosan 30 mins, fixed cells
T5 construct: endogenous in cells; host or cells: RAW264.7
Protocol: RAW264.7 cells were transfected with GFP-fused Nbs and treated with Zymosan for 30 mins. Recruitment of LRRK2 and Nbs to the phagosomes was analyzed by immunofluorescence. FIG. 16A, images for Nb38, Nb22, Nb23, Nb40, No Nb, or Irrelevant (IRR) Nb treatments; FIG. 16B, images for Nb36, Nb42, Nb17, Nb39, Nb1, and Nb6 treatments. Scale bar=10 μm.
To test whether Nbs can trace and visualize endogenous LRRK2 in fixed cells, we generated green fluorescent protein (GFP)-Nb fusions (fluobodies) as described before. Recently, it was shown that LRRK2 is recruited to phagosomes upon induction of phagocytosis in immune cells. Therefore, RAW264.7 cells were transfected with these fluobodies and treated with killed yeast bioparticles “zymosan” to induce phagocytosis.
RAW264.7 cells (ATCC® SC-6003™) were transfected with peGFP-Nb constructs using JetOPTIMUS (Polyplus transfection) for 24 hrs and then stimulated with Zymosan particles (Sigma Aldrich) for 30 mins ([…]). Immunostaining for LRRK2 was performed as reported before. Briefly, cells fixed with 4% (w/v) paraformaldehyde for 30 min, followed by treatment with 100% EtOH at −20° C. Sampled were permeabilized with PBS/0.5% Triton X-100 and blocked with 3% BSA. Primary antibodies (rabbit anti-LRRK2, c41-2, Abcam and mouse anti-GFP, G6539, Sigma Aldrich) were diluted in PBS containing 3% BSA and 0.5% Triton X-100 and incubated overnight at 4° C. After three 5-min washes with PBS, secondary fluorescently labeled antibodies (anti-rabbit-Alexa fluor 568 and anti-mouse-Alexa fluor 488, Invitrogen) were added in a similar manner to primary antibodies and incubated for 1 hour at room temperature. Cells were washed twice with 1×PBS and mounted with Fluroshield antifade reagent with DAPI (SigmaAldrich). Images were acquired on Zeiss LSM800 confocal laser scanning microscope. Image analysis of z-scan was done using the Zeiss microscope software ZEN.

LRRK2(G2019S) = molecular target: T6, LRRK2(G2019S) (Homo sapiens, UniProt Q5S007, G2019S/M2397T/R50H); experiment: In cellulo phospho-Rab / LRRK2 autophosphorylation assay in HEK293T cells; assay type: cell-based; parameters: key to Functional Group (see FIG. 2d): Group 1: group 1: Nbs that inhibit both LRRK2 autophosphorylation and Rab10 phosphorylation in cells; Group 2: group 2: Nbs that inhibit only Rab10 phosphorylation; Group 3: group 3: Nbs that activate LRRK2 kinase activity; Group 4: group 4: Nbs that have no consistent/clear effect on LRRK2 kinase activity
T6 construct: SF tag (FLAG + Twin-Strep); expressed in transfected cells; host or cells: HEK 293T
Protocol: (FIGS. 2A-2C) LRRK2(G2019S) and its effector Rab29 were overexpressed together with GFP-fused Nbs (“Fluobody”) in HEK293T cells. A negative control, where no Nb is overexpressed (“No Nb”) is also included. […] In rows labeled “pLRRK2”, LRRK2 pS1292 levels are determined by Western Blot using a site-specific anti-pLRRK2(pS1292) antibody (Abcam, ab203181) (shown at different times of development). In the rows labeled “pRAB10”, endogenous pT72-Rab10 levels are determined by Western Blot using the MJFF/Abcam antibody MJF-R21 (Abcam, ab230261) (shown at different times of development). The three lower rows contain controls of LRRK2 (rat anti-LRRK2, 24D8), Fluobody (rat anti-GFP) and Rab10 (rabbit anti-Rab10) expression levels. (FIG. 2D) Based on the results of panels (FIGS. 2A-2C) the Nbs can be divided into 4 functional groups, with group 1: Nbs that inhibit both LRRK2 autophosphorylation and Rab10 phosphorylation in cells; group 2: Nbs that inhibit only Rab10 phosphorylation; group 3: Nbs that activate LRRK2 kinase activity; group 4: Nbs that have no consistent/clear effect on LRRK2 kinase activity.
To assess the influence of the Nbs on LRRK2 kinase activity we monitored two physiologically and disease relevant activities of LRRK2: phosphorylation of the endogenous substrate Rab10 at position T72 and LRRK2 autophosphorylation at position S1292 [25-30]. […] In our cellular assay we thus co-expressed LRRK2(G2019S), Rab29 and the different Nb-GFP fusions in HEK 293T cells (FIG. 2a-c).
HEK 293T cells were cultured in DMEM (supplemented with 10% Fetal Bovine Serum, […] L-Glutamine and 0.5% Pen/Strep). For the assay, the cells were seeded onto six-well plates and transfected at a confluency of 50-70% with the individual Nb-GFP expression constructs, SF-tagged LRRK2(G2019S) and FLAG-HA Rab29 using a self-made polyethylenimine (PEI)-based transfection reagent. After 48 hrs cells were lysed in lysis buffer [30 mM Tris-HCL (pH7.4), 150 mM NaCl, 0.5% Nonident-P40, complete protease inhibitor cocktail, phosphatase inhibitor cocktail II & III (all Sigma)]. Lysates were cleared by centrifugation at 10,000×g and adjusted to a protein concentration of 1 μg/μl in 1× Laemmli Buffer. Samples were subsequently subjected to SDS PAGE and Western Blot analysis to determine LRRK2 pS1292 and Rab10 T72 phosphorylation levels, as described below. Total LRRK2 and Rab10 levels were determined as a reference.
For western blot analysis, protein samples were separated by SDS-PAGE using NuPAGE 10% Bis-Tris gels (Invitrogen) and transferred onto PVDF membranes (Thermo Fisher). To allow simultaneous probing for LRRK2 on the one hand and Rab and the Nb-GFP fusions on the other hand, membranes were cut horizontally at the 140 kDa MW marker band. After blocking non-specific binding sites with 5% non-fat dry milk in TBST (1 h, RT) (25 mM Tris, pH 7.4, 150 mM NaCl, 0.1% Tween-20), membranes were incubated overnight at 4° C. with primary antibodies at dilutions specified below. Phospho-specific antibodies were diluted in TBST/5% BSA (Roth GmbH). Non-phospho-specific antibodies were diluted in TBST/5% non-fat dry milk powder (BioRad). Phospho-Rab10 levels were determined by the site-specific rabbit monoclonal antibody anti-pRAB10([…]) (Abcam, ab230261) and LRRK2 autophosphorylation was determined by the site-specific rabbit monoclonal antibody anti-pLRRK2(pS1292) (Abcam, ab203181), both at a dilution of 1:2,000. Total LRRK2 levels were determined by the in-house rat monoclonal antibody anti-pan-LRRK2 (clone 24D8; 1:10,000). Total Rab10 levels were determined by the rabbit monoclonal antibody anti-RAB10/ERP13424 (Abcam, ab181367) at a dilution of 1:5,000. Nb-GFP fusion proteins were detected using the rat monoclonal antibody anti-GFP (clone 3H9, ChromoTec) at a dilution of 1:2,000. For detection, goat anti-rat IgG or anti-rabbit IgG HRP-coupled secondary antibodies (Jackson ImmunoResearch) were used at a dilution of 1:15,000 in TBST/5% non-fat dry milk powder. […]

T1 sequence (Q5S007 other isoform, or with tags, fused parts or gaps limits assumed): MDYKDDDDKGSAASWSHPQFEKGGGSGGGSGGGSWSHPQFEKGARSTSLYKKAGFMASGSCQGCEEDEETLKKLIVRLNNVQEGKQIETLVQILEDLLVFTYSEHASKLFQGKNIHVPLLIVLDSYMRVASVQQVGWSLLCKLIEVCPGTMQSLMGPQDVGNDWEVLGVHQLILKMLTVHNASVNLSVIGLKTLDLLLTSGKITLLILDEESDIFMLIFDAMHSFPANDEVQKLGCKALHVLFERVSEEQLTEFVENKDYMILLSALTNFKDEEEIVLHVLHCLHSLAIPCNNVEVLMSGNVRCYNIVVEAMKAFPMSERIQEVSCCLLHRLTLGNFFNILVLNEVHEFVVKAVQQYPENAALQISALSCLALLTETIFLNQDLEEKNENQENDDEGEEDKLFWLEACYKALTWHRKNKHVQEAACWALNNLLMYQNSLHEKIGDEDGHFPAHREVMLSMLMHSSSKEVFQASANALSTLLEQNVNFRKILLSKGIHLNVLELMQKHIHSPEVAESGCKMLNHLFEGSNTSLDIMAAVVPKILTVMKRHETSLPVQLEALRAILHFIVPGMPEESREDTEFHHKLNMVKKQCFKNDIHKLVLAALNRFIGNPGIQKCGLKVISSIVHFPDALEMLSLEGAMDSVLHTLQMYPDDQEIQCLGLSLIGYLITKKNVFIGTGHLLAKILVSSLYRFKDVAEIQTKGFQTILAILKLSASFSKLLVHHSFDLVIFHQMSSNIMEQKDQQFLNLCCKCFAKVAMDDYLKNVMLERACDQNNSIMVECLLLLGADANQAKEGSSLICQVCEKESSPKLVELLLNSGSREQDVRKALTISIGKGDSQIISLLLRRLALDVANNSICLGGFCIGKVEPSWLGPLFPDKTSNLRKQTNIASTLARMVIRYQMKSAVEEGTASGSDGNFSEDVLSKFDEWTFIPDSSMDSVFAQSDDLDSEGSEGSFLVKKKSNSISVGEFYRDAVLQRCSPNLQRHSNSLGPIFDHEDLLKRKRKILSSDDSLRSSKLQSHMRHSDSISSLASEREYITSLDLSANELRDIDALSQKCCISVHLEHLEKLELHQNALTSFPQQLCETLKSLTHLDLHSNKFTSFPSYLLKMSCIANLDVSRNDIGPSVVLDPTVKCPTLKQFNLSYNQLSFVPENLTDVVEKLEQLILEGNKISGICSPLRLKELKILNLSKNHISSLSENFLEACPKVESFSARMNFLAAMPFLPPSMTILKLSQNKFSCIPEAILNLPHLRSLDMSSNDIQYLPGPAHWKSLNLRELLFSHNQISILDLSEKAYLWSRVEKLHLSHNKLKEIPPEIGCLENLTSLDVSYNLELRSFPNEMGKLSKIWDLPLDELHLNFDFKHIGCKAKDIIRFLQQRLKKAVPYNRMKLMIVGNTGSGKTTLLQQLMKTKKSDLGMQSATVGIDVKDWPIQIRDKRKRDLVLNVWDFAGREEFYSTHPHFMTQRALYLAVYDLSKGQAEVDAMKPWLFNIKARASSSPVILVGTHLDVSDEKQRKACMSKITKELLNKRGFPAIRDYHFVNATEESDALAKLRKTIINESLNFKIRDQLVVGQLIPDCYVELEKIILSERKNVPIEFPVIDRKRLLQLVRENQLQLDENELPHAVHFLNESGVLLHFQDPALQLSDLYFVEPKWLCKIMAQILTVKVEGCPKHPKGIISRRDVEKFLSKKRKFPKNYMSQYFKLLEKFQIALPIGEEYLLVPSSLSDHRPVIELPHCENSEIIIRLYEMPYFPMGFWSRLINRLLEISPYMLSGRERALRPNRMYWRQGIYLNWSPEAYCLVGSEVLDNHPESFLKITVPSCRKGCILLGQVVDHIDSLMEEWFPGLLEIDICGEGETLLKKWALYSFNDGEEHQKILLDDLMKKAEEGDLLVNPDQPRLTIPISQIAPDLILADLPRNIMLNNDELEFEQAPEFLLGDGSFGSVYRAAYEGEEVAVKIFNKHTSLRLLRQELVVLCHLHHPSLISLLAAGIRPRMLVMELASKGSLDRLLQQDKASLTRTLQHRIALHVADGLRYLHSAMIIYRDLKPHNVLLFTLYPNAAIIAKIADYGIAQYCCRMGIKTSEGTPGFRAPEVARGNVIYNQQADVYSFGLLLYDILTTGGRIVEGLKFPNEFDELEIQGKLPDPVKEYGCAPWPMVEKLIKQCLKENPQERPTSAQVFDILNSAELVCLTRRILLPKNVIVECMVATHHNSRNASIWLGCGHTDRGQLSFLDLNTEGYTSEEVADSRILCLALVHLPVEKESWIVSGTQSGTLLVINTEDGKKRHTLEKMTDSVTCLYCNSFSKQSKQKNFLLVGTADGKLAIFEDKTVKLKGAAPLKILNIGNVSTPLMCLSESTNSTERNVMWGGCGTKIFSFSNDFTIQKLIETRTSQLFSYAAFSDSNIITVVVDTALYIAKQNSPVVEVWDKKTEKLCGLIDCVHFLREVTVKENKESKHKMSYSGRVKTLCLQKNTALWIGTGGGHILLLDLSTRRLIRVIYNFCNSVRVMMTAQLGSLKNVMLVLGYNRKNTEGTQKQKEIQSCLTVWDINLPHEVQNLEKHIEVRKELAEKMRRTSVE
T6 sequence (Q5S007 whole entry R50H/G2019S/M2397T): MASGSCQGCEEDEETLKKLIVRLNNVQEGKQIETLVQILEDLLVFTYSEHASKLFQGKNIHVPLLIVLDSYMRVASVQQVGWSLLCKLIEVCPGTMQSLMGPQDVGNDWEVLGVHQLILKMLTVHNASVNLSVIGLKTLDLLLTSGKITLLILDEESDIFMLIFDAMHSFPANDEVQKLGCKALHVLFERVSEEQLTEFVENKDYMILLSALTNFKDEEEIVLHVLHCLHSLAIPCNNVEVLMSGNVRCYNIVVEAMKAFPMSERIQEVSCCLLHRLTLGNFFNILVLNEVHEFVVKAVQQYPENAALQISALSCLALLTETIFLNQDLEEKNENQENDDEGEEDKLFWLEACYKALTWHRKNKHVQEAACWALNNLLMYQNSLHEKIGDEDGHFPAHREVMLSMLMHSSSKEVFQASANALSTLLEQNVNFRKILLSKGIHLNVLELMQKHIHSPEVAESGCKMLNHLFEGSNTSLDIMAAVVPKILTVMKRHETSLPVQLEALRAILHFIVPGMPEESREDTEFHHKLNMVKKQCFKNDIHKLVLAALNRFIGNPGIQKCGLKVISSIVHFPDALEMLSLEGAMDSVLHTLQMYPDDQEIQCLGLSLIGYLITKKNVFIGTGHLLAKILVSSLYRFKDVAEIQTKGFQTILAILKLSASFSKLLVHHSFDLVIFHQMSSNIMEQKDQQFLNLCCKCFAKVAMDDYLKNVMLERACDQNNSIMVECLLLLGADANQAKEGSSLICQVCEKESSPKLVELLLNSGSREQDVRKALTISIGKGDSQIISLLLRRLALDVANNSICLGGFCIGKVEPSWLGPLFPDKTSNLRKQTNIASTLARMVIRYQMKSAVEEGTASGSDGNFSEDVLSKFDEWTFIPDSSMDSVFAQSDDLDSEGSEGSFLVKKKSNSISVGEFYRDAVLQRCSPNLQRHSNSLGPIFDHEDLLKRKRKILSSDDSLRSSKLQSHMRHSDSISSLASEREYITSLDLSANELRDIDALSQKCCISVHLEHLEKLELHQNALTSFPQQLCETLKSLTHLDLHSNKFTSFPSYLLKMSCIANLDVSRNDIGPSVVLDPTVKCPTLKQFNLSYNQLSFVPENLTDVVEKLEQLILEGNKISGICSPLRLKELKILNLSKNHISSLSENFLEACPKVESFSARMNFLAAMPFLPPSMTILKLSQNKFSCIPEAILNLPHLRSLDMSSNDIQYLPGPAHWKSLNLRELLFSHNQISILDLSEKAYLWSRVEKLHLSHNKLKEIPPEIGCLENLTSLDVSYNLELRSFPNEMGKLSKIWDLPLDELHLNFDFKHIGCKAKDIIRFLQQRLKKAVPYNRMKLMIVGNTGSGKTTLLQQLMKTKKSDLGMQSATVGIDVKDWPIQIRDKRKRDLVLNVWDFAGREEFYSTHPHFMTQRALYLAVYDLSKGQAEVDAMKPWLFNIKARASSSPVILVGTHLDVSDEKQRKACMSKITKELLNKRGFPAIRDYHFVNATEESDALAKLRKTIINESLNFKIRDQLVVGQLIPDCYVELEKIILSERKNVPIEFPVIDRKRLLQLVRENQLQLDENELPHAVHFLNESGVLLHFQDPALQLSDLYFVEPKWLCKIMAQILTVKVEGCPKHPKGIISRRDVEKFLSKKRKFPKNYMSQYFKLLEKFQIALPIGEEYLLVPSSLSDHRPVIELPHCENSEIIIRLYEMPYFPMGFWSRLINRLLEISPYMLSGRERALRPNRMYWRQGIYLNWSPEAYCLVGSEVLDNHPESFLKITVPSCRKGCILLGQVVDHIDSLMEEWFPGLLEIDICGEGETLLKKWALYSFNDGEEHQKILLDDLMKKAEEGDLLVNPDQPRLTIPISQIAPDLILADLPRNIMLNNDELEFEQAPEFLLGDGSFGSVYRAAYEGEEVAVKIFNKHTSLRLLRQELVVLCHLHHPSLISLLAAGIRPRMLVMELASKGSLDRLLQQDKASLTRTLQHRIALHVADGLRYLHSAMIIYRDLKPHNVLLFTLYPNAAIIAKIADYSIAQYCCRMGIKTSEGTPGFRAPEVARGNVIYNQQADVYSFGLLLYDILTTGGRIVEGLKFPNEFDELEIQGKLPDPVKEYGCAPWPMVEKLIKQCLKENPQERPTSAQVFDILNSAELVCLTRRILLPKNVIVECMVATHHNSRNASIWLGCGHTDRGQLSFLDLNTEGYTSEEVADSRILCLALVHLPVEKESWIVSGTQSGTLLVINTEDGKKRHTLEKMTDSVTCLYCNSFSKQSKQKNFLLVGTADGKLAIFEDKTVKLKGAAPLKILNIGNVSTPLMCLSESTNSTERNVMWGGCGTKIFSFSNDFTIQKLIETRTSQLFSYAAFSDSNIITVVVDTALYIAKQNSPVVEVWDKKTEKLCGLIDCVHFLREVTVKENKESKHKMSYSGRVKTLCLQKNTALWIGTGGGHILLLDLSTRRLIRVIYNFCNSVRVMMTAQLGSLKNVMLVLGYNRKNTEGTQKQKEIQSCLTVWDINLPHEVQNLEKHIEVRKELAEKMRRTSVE

B1: Nb22 (CA13611) (VHH)
VHH: QVQLVESGGGLVQAGGSLRLSCAASGRTFSSYTMGWFRQAPGKEREFVAAIRWSGGSTYYADSVKGRFTISRDNAKNTVYLQMNSLKPEDTAVYYCAASDRGGFIATSGGWMDYWGKGTQVTVSS
With B1 the Kd [1] was 76 nM, the Kd [2] was 145 nM and the binding result [3] was “no binding (tested: not given)”. B1: no binding (tested: not given) [4]; no binding (tested: not given) [5].

B2: Nb39: LRRK2-specific Nanobody, SEQ ID NO: 10 (protein)
VHH: MAQVQLVESGGGLVQAGGSLRLSCRASGGTFSTYAMGWFRQVPGKERETVAAVKWSGDMTYYADSVKGRFTISRDNAKNTVYLQMNSLRPEDTAVYYCAARRGLSYYRGPSEYDYWGQGTQVTVSS
modifications: Nanobody CA14134
B2 was tested, and the “colocalization with endogenous LRRK2 on phagosomes” value (endogenous LRRK2) was “LRRK2 recruitment to phagosomes was slightly detectable”, the “influence on LRRK2 kinase activity compared to the controls” value (LRRK2(G2019S); HEK 293T cells co-expressing LRRK2(G2019S), Rab29 and Nb-GFP, Western blot) was “no influence on LRRK2 kinase activity” and the “Functional Group (see FIG. 2d)” value (LRRK2(G2019S); classification by effect on in cellulo LRRK2(G2019S) kinase activity) was “Group 4”.
